What is called Kd is the concentration at which binding is half-saturated. Low values mean tighter binding, high ones weaker binding. The term koff denotes the rate constant with which the complex falls apart. Higher therefore signals a short-lived complex.

Results on two molecules are retold here after publication doi:10.1101/2023.08.24.554544 (2023).

Assay [1] addresses T1, aster yellows witches'-broom phytoplasma SAP05 (AYWB_SAP05), mature, 33-135 (Aster Yellows phytoplasma strain …, UniProt Q2NK94 33-135).
T1 chain: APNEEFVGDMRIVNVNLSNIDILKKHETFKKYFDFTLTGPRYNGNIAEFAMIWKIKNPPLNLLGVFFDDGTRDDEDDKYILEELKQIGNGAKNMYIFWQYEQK
Put plainly: SPR. Background: In SPR one partner is held on a chip, and binding of the other changes the refractive index at the surface.

For assay [2], the target named is V-shape-GSGS-C-ter peptide (fused V-shape and C-ter peptide of SAP05, linked by the GSGS linker) (UniProt Q2NK94). As to the kind of experiment: SPR.

B1: GST-tagged homo sapiens Rpn10 (hRpn10) vWA (1-193aa) (domain or fragment)
chain: MVLESTMVCVDNSEYMRNGDFLPTRLQAQQDAVNIVCHSKTRSNPENNVGLITLANDCEVLTTLTPDTGRILSKLHTVQPKGKITFCTGIRVAHLALKHRQGKNHKMRIIAFVGSPVEDNEKDLVKLAKRLKKEKVNVDIINFGEEEVNTEKLTAFVNTLNGKDGTGSHLVTVPPGPSLADALISSPILAGEG
Molecule B1 registered a dissociation constant (Kd) in assay [1] of roughly 149 µM.

B2: GST-tagged A. thaliana Rpn10 (AtRpn10) vWA domain (domain or fragment)
chain: VLEATMICIDNSEWMRNGDYSPSRLQAQTEAVNLLCGAKTQSNPENTVGILTMAGKGVRVLTTPTSDLGKILACMHGLDVGGEINLTAAIQIAQLALKHRQNKNQRQRIIVFAGSPIKYEKKALEIVGKRLKKNSVSLDIVNFGEDDDEEKPQKLEALLTAVNNNDGSHIVHVPSGANALSDVLLSTPVFTG
B2 returned a dissociation rate constant (koff) in assay [2] of 0.0115 s⁻¹.
